The target in series [1] is CFHR2/1-2 (N-terminal SCRs 1-2 of CFHR2) (human). Nature of the series: SEC-MALS; static light scattering (miniDawn TREOS, Optilab T-rEX) with size exclusion chromatography on Superdex 200 or Superdex 75; proteins purified by Ni2+-chelate chromatography, deglycosylated, non-reduced. Background: SEC sorts molecules by how far they enter the pores of the column.
In a further series the target is N-biotinylated C3b (UniProt P01024). The series can be described thus: SPR; Biacore T200, 25°C; N-biotinylated C3b captured on a streptavidin-coated CM3 chip (520 RU); factor H or CFHR2 6.25–3200 nM in HBS-EP (10 mM HEPES pH 7.4, 150 mM NaCl, 50 µM EDTA, 0.005% P20), 30 µl/min; 1:1 model with mass transport term, KD from kinetic rate constants; one CFHR2 dimer regarded as one molecule.

Series [2] deals with the molecule itself. Nature of the series: SEC-MALS; static light scattering (miniDawn TREOS, Optilab T-rEX) with size exclusion chromatography on Superdex 200 or Superdex 75; proteins purified by Ni2+-chelate chromatography, deglycosylated, non-reduced.
The target of the next series is T1, C3d (UniProt P01024 1002-1303).
T1 construct: C3d, cleavage fragment of complement C3; source: bought: Complement Technology
The series can be described thus: ELISA; competition: C3b or C3dg (methods; C3d in results) 5 µg/ml immobilised; constant CFHR2 (5 µg/ml, 0.07 µM) and increasing factor H (5–50 µg/ml, 0.033–0.33 µM); factor H detected with factor H/1-4 antiserum, CFHR2 with mAb A72. To be noted: both partners purified. A general note: ELISA stands for enzyme-linked immunosorbent assay.

For another series, the target named is T2, C3dg (UniProt P01024 955-1303).
T2 construct: C3dg, cleavage fragment of complement C3; cloned with the printed primer pair; source: E. coli, pET200/D-Topo expression system, purified (Ni-NTA Superflow Cartridge), dialyzed against DPBS
Nature of the series: ELISA; C3b, C3c, C3dg or C3d (each 142 nM) coated on MaxiSorp plates; CFHR2 or factor H (each 0.07 µM) or CFHR2 fragments in equimolar amounts; detected with CFHR1 and factor H antisera. Particulars: both partners purified.

T2 sequence (P01024 955-1303): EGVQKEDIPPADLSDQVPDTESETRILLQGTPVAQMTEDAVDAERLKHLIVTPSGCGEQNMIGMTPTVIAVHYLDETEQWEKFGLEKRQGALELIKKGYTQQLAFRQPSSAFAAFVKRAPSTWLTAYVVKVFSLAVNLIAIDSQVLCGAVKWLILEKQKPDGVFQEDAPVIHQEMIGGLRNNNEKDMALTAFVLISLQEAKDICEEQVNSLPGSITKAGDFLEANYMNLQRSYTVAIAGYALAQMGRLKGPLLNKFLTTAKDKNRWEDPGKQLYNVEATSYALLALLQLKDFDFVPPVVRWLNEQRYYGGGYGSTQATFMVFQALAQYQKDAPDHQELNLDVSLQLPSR
T1 sequence (P01024 1002-1303): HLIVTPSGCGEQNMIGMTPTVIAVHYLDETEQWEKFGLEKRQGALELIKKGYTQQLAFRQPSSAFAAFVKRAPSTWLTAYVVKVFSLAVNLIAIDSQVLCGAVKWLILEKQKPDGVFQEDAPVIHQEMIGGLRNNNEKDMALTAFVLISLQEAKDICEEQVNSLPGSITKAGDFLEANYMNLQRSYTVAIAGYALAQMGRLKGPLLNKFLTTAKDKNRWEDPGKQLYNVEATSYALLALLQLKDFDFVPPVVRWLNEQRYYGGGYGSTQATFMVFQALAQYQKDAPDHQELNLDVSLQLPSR

For the molecule “CFHR2/1-2 (N-terminal SCRs 1-2 of CFHR2) (domain or fragment)”, the stoichiometry N in series [1] was determined as 2.

As to “Factor H (from UniProt P08603 19-1231) (natural protein)”, the dissociation constant Kd with N-biotinylated C3b is 570 nM.

B1: Human factor H-related protein 2 (CFHR2), recombinant full length (natural protein, UniProt P36980 19-270, looked up)
chain: EAMFCDFPKINHGILYDEEKYKPFSQVPTGEVFYYSCEYNFVSPSKSFWTRITCAEEGWSPTPKCLRLCFFPFVENGHSESSGQTHLEGDTVQIICNTGYRLQNNENNISCVERGWSTPPKCRSTISAEKCGPPPPIDNGDITSFLLSVYAPGSSVEYQCQNLYQLEGNNQITCRNGQWSEPPKCLDPCVISQEIMEKYNIKLKWTNQQKLYSRTGDIVEFVCKSGYHPTKSHSFRAMCQNGKLVYPSCEEK
notes: Complement factor H-related protein 2 (CFHR2), human, four SCR domains; Secreted from Pichia; Several glycosylated forms; also called CFHR2 homodimer; CFHR2 dimer
Turning to B1, the “stoichiometry N” value in series [2] turned out to be 2. The binding result with C3d and with C3dg was “binds” each time. In the series with N-biotinylated C3b, this molecule yielded a Kd of 4200 nM.

One may read the stoichiometry N as a count of units in the complex or per binding partner. A word on the Kd: it is a measure of binding affinity in units of concentration. Low readings indicate a tighter complex, high ones a looser complex.

Source of the values: article PMC3832495, “Human Factor H-Related Protein 2 (CFHR2) Regulates Complement Activation” (PLoS ONE, 2013).
